In this assay the target is modifying region of human fatty acid synthase (hFASN) isolated by TEV cleavage of the engineered full-length protein (human) (UniProt P49327). The experiment in a line: cryo-EM structure; hFASN modifying region after TEV cleavage, 0.8 mg/mL, 1 mM NADPH, 1 mM DTT; also with 13.75 µM Denifanstat; plunge-frozen on holey gold grids, Titan Krios.

modifying region of human fatty acid synthase (hFASN) isolated by TEV cleavage of the engineered full-length protein, sequence (P49327 855-2511, change not shown): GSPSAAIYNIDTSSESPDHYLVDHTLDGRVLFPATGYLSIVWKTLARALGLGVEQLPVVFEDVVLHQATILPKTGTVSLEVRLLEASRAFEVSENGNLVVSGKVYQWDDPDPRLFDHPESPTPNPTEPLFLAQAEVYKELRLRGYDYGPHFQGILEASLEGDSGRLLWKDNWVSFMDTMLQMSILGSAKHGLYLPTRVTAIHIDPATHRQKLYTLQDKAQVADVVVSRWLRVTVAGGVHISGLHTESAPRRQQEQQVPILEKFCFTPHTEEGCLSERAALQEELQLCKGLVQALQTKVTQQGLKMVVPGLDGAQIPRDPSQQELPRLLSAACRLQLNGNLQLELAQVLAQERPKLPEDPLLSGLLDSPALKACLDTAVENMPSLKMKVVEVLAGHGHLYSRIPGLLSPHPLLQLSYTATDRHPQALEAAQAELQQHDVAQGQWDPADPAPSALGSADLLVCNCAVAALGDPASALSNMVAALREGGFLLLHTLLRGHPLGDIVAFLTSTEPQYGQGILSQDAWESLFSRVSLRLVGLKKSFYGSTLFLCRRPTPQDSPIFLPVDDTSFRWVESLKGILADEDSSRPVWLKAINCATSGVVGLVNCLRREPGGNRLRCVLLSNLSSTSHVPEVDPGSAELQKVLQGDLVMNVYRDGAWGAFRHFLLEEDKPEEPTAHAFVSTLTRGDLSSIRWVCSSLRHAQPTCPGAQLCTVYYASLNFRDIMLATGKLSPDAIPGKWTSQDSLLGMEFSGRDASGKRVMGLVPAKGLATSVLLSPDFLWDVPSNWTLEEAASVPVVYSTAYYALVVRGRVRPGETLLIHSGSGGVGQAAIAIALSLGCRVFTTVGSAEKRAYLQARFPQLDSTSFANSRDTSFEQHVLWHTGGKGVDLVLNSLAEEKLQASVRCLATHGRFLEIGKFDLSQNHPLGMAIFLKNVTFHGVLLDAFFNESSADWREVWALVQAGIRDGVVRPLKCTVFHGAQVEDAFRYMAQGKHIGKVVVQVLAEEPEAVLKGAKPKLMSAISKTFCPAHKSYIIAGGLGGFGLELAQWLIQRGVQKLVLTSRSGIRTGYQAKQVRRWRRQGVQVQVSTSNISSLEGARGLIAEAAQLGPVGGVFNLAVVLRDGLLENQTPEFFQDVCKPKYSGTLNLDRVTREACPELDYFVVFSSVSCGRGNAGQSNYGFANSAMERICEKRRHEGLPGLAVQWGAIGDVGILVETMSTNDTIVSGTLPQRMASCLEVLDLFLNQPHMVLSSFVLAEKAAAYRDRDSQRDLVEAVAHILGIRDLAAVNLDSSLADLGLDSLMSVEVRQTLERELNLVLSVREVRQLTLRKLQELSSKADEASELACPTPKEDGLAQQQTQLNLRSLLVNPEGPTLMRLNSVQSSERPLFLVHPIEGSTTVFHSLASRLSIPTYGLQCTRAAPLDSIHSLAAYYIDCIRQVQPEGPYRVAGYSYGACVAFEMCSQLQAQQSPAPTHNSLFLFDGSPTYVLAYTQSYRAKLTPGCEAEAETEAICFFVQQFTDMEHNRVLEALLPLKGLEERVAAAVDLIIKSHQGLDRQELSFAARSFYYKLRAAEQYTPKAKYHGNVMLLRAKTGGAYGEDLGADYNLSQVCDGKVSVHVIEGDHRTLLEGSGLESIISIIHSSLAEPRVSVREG

As a reminder, the stoichiometry N is the number of molecules, sites or subunits per partner or assembly. Substance “modifying region of human fatty acid synthase (hFASN) isolated by TEV cleavage of the engineered full-length protein (from UniProt P49327 855-2511) (domain or fragment)” returned a stoichiometry N of 2.

(Values after publication PMC10258763.)
